Test results as given in KR20210143097A (dated 2021).
Blank lines part the entries; values can stand above or below the binder they belong to.

Tests used:
[1] = target: CD22-His tag (CD22 extracellular domain; ACRObiosystems Inc.) (UniProt P20273); assay: ELISA, CD22-His tag coated at 100 ng/well, primary antibody 0.4 ㎍/㎖, absorbance at 450 nm
[2] = target: T1, CD22 on B-cell lymphoma U2932 cells (UniProt P20273 20-847, limits assumed); assay: flow cytometry on U2932 cells, 1 ㎍ antibody per 1x10^6 cells, PE anti-mouse IgG secondary
T1 construct: whole, on cells; Endogenous CD22 on the U2932 cell line; also called CD22를 발현하는 비세포림프종 U2932; CD22를 발현하는 U2932 세포
T1 sequence (looked up): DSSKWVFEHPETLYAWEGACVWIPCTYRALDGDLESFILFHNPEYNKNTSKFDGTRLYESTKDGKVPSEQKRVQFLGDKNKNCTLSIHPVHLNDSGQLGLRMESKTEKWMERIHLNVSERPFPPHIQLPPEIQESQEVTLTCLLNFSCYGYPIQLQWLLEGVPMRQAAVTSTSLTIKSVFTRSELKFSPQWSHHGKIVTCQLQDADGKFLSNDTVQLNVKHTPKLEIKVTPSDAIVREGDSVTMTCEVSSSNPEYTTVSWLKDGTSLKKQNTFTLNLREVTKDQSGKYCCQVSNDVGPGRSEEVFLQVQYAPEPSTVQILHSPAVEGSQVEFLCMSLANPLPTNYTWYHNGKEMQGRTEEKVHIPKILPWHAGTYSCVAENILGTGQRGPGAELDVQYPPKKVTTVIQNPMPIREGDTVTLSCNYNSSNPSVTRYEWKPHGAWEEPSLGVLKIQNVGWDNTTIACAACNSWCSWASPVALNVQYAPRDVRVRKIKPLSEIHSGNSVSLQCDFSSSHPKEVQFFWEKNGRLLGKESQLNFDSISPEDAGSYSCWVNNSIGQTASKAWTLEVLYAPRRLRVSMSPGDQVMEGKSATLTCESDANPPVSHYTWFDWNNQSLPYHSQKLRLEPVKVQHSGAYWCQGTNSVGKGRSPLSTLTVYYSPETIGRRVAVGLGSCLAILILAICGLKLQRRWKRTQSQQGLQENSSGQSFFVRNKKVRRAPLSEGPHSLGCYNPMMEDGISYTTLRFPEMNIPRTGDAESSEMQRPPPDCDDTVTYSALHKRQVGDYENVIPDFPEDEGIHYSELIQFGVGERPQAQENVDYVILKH

OD450 측정값 [1]: 1.86 | binding result [2]: binds
B1: 3F11 항체 (antibody, V domains shown)
VH: EVKLVESGGGLVQPGGSMKLSCVASGFTFSNYWMNWVRQSPEKGLEWVAEIRLKSNNYATHYAESVKGRFTISRDDSKSSVYLQMNNLRAEDTGIYYCTSIYYYGRDYAMDYWGQGTSVTVSS
VL: DIVMTQSPAIMSASLGERVTMTCTASSSVSSSYLHWYQQKPGSSPKLWIYSTSNLASGVPARFSGSGSGTSYSLTISSMEAEDAATYYCHQYHRSPYTFGGGTKLEIK
notes: Antibody from a mouse hybridoma, detected with an anti-mouse IgG secondary antibody

OD450 측정값 [1]: 2.66 | binding result [2]: binds
B2: 7B5 항체 (antibody, V domains shown)
VH: EVQLEESGPGLVAPSQSLSITCTVSGFSLTRYDISWIRQPPGKGLEWLGVMWTGGGTNYNSAFMSRLSISRDNSKSQVFLKMNSLQTDDTAIYYCVRSYYGSAMDYWGQGTSVTVSS
VL: DIVMTQSSSYLSVSLGGRVTITCKASDHINNWLAWYQQKPGNAPRLLISGATSLETGVPSRFSGSGSGKDYTLSITSLQTEDVATYYCQQHWSTPFTFGSGTKLEIK
notes: as for B1
